Data as given in the DeepSol protein solubility set.

Experiment: soluble on expression in E. coli; label from the status in PepcDB or PDB records

Sequence | soluble on expression in E. coli
MKIKSIEARNISIPLNRPIHNPAFKFTHCKYTIVTVTTDEDITGWSFSFGMHHTKAVVDELAEILVGEEIDTRRLYEKMMRTQAVRWDRGGISMRALSAIDIALWDIVGKSCGLPLYRLMGCYREEIPVYYSGGHYPVDSTKTSDMLDYLEQDIGKGLDRGFSSFKIKIGGAAVNQDLERIAFCRKLIGPYRRLMVDAFCAYEADVIIPMAKKFEQYDIGFLEEPVALDDIPGCAYVAANVSMPVALGESHYTMAQFRDIINSKAARILQPDVAYVGGITGFMQYAGIAAYHGLRLAPHWCHDLSVQLALSIPQIRELEYMDQNSALFLIQKVIENPVTAKNGIVRAPEGAGHGLVLDEKAVERYLA | soluble
MGSDKIHHHHHHMLLHIPNVLNAEQLRIVRERLDTAGDAWVDGRATAGYQGAPVKRNQQIAEHTPIARELGDVILASIERNPLFISSVLPNQVYPPLFNRYEGGMQFGSHVDGAVRVLPNGVKLRTDVSVTLFISDPADYDGGELVIEDTYGVQQVKLPAGDMIVYPATSLHQVTPVTRGVRVASFFWVQSLVRSDTQRAMLFDMDTAIQRLNATNADDAARRSLVGIYHNLLRTWSEP | not soluble
MGSDKIHHHHHHMTDLKTTFAGLSLRNPIIISSSGLTNSAGKNKRLAEAGAGAIVLKSLFEEQIMLEADQLKDPAFYPEASDYLEEYIREHKLAEYLTLIKESKKECSIPIIASINCYSDSEWVDFAKQIQEAGADALEINILALQSDVQYTYGSFEQRHIDILRHIKQTVTIPVIMKLGDNLTNPVALIDQLYANGAAAVVLFNRFYQPDINIENMEQVSGEVFSTSADLATPLRWIGIASSVVNKIDYAASGGVANPEAVVKAILAGASAVEVCSAIYQNTNAFIGESTRFLSAWMERKGFKNIAQFKGKLNIKDVQGINTFERTQFLKYFGKKEA | not soluble
MGSDKIHHHHHHADDSYLIDGGKANPYYNGNMMQYLESRPDYFKDLVEVIRLSGMEDVFEDEQITFFAPTDWSIRGSFNYLNRIWYRMGHDSIKSFSQIKPEVWREMLSMYIVKDKYLLKDIPQIDTTAIAAYPGQAFLSYGQQPMNMGVVYYDANNVKYAGARQIIYSYVYDFTIGDMKNAYVATSDIQPTNGVVHVLRLTDHAFGFEPYLFATKAINATIETEPDN | not soluble
MSLTPEIPPKNFTPHLPEDYDARISGVLPYYSSFHQETINLVKSLPSSPKIWMDTGCGTGSLINKAIEEFLDTKFLLLDPSESMLEQAKGKLSFYPDGKVEFLKASSTQEFSQELEEKPDVITAIQCHHYLSLEDRSRATRVCYNLLKEGGIYITFENIRPLTEEGVAVGKRYWGKFQSLHGRKEKEIQTHLERFDTEYFPITVEEHLKLLRDTGFRTVELFWYSYMQAGFYCIKEGHHHHHH | soluble
MEQTTIDGISLSLAGPVELTLRWVGQDELLKQLLAAWMVIDEKDIPFNPRLIGKPGVGKTTLAYAAARRLDRPVYLFQATMDTRPEDLIITPVIGPDGKIQYAASALVSAMLKGGVLILDEGNRMSEKAWASLAPLLDDRRYVESIITGLRVPAHRDFRIVVTMNEDSSTFEVPEYIHSRLQPQIFIDFPEADEELLILKENLPFAPSRILAYVVDFLQRAHAADELYSVRDGINIARYALKMMAATERDSVELLPLAVERVLGDEALRYLKLEHHHHHH | not soluble
MVRIYTLTLAPSLDSATITPQIYPEGKLRCSAPVFEPGGGGINVARAIAHLGGTATAIFPAGGATGEHLVALLADENVPVSTVDAKDWTRQNLHVHVESSGEQYRFVMPGATLDDDEFRQLEEQVLEIESGAILVISGSLPPGVKVEKLTQLISAAQKQGIRCIIDSSGDALTAALALGDIELVKPNLKELSALVNRDLTQPDDVRKAAQELVQSGKARRVVVSLGPQGALGIDSENCIQVVPPPVKSQSTVGAGDSMVGAMTLKLAQDASLEEMVRFGVAAGSAATLNQGTRLCSRDDTQKIYAYLSAQ | not soluble
MDKKQVTDLRSELLDSRFGAKSISTIAESKRFPLHEMRDDVAFQIINDELYLDGNARQNLATFCQTWDDENVHKLMDLSINKNWIDKEEYPQSAAIDLRCVNMVADLWHAPAPKNGQAVGTNTIGSSEACMLGGMAMKWRWRKRMEAAGKPTDKPNLVCGPVQICWHKFARYWDVELREIPMRPGQLFMDPKRMIEACDENTIGVVPTFGVTYTGNYEFPQPLHDALDKFQADTGIDIDMHIDAASGGFLAPFVAPDIVWDFRLPRVKSISASGHKFGLAPLGCGWVIWRDEEALPQELVFNVDYLGGQIGTFAINFSRPAGQVIAQYYEFLRLGREGYTKVQNASYQVAAYLADEIAKLGPYEFICTGRPDEGIPAVCFKLKDGEDPGYTLYDLSERLRLRGWQVPAFTLGGEATDIVVMRIMCRRGFEMDFAELLLEDYKASLKYLSDHPKLQGIAQQNSFKHT | soluble
MGKGVRDPGSDGSLRRKELAMIKVEDMMTRHPHTLLRTHTLNDAKHLMEALDIRHVPIVDANKKLLGIVSQRDLLAAQESSLQRSAQGDSLAFETPLFEVMHTDVTSVAPQAGLKESAIYMQKHKIGCLPVVAKDVLVGIITDSDFVTIAINLLELQEESEPDELDEEQ | not soluble
MANPRGFCAGVDRAISIVENALAIYGAPIYVRHEVVHNRYVVDSLRERGAIFIEQISEVPDGAILIFSAHGVSQAVRNEAKSRDLTVFDATCPLVTKVHMEVARASRRGEESILIGHAGHPEVEGTMGQYSNPEGGMYLVESPDDVWKLTVKNEEKLSFMTQTTLSVDDTSDVIDALRKRFPKIVGPRKDDICYATTNRQEAVRALAEQAEVVLVVGSKNSSNSNRLAELAQRMGKHAFLIDDAKDIQEEWVKEVKCVGVTAGASAPDILVQNVVARLQQLGGGEAIPLEGREENIVFEVPKELRVDIREVD | not soluble
NRRIVARLIGLGDSIDAIIKNDLSHPIVVDGNDEIGRLSEKLIEYGEKVQEIQRTNALSLINNTTASLITSDLNGVVESANLSARKLLKLGEVNESYPIWEYFPESCREQLKKVFDGSHLWIELGKIHVTLSLGDEKPKYVRFDIRPFAHGAEYKLIMTITDVTHQEMTTRTLESRVLEKTQDLLLKNQQLENEIEERIRTEDNLKKTQDELIQAAKMAVVGQTMTSLAHELNQPLNAMSTYLYSARMFLEQESPEKVGESITHIEGLATRMSKIINSLRQFARKPEGEREVKFVSVHEVAEQASTIVNTRAKRQQIIIENQLPDDVKVQGDMLALEQVFINVLVNSCDALMESTRDEQKRIQMALVERTSQTTLIAISDNGIGFGEEIVQRIFQPFVSTKEVGLGLGMNICKSLIEKHKGSIYLASSLEKGAMVVLELPNEQ | not soluble
MANWQCVKQCGACCNLDPAERPEIEDYLTPDELEIYFSMVGEGGWCVNFDHTTRECRIYSTRPRFCRVEPDIFQDMYGIESEELNDFAIECCRQQIEGVYGDRSLEMLRFDKAVGILEHHHHHH | soluble
MGSDKIHHHHHHMSDDTIDRFFGYLNWLFNPFHGLKTTEVYDLIGTSSLTENALYLNLGYWRKADTIDEASEALALLVAKRGGMGPGDIVLDCGYGFGDQDILWARQLKPEKIIGLNITSSQVERARKRVADAGLEQSIDLREGSATAMPIENESIDLVVSVESAFHYRTREAFFREAFRVLRPGGRLVTADIVPTENSGNPFRRMEQWFSWNLVAGKFNIPQENYYLIPSYQNKLTKAGFVQIDIKSIRDDVYEPLHAYLAKNRTFFAKMHPLARIMAQLTLNRSAESVYAGLDYILSYAEKP | not soluble
MGHHHHHHSHFLSSSTYPEIHGFLHAKEQGKKSWKKIYFFLRRSGLYFSTKGTSKEPRHLQFFSEFGNSDIYVSLAGKKKHGAPTNYGFCFKPNKAGGPRDLKMLCAEEEQSRTCWVTAIRLLKYGMQLYQNYMHPYQGRSGCSSQSI | not soluble
HHHHHHMASSAQDGNNPLFSPYKMGKFNLSHRVVLAPMTRCRALNNIPQAALGEYYEQRATAGGFLITEGTMISPTSAGFPHVPGIFTKEQVREWKKIVDVVHAKGAVIFCQLWHVGRASHEVYQPAGAAPISSTEKPISNRWRILMPDGTHGIYPKPRAIGTYEISQVVEDYRRSALNAIEAGFDGIEIHGAHGYLIDQFLKDGINDRTDEYGGSLANRCKFITQVVQAVVSAIGADRVGVRVSPAIDHLDAMDSNPLSLGLAVVERLNKIQLHSGSKLAYLHVTQPRYVAYGQTEAGRLGSEEEEARLMRTLRNAYQGTFICSGGYTRELGIEAVAQGDADLVSYGRLFISNPDLVMRIKLNAPLNKFNRKTFYTQDPVVGYTDYPFLQGNGSNGPLSRL | soluble
